# Test results published in the supplement of paper PMC9112550, “Optimization of the antimicrobial peptide Bac7 by deep mutational scanning” (BMC Biology, 2022).
# Test system: Escherichia coli TOP10
# Assay: shrunken log2 fold change of peptide-encoding DNA abundance (4.5 h post-induction vs induction); higher = less antimicrobial activity (less host growth inhibition)
# Conditions: time post-induction: 4.5 h; library: site-saturation at positions 5, 18, 19, 20
# 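Also: peptides expressed intracellularly from a pBAD plasmid library in pooled LB shake-flask culture, induced with 0.3% L-arabinose, DNA abundance read by NGS, three biological replicates, DESeq2 with apeglm shrinkage.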
row,Sequence,shrunken log2 fold change
1,RRIRVRPPRLPRPRPRPCPEPRP,-0.189
2,RRIRSRPPRLPRPRPRPMQFPRP,0.0683
3,RRIRGRPPRLPRPRPRPSIWPRP,0.511
4,RRIRMRPPRLPRPRPRPKGHPRP,0.0377
5,RRIRNRPPRLPRPRPRPILIPRP,-0.37
6,RRIRVRPPRLPRPRPRPLHMPRP,-0.17
7,RRIRSRPPRLPRPRPRPCVSPRP,-0.391
8,RRIRHRPPRLPRPRPRPWPVPRP,0.155
9,RRIRQRPPRLPRPRPRPGHSPRP,-0.00616
10,RRIRIRPPRLPRPRPRPSCQPRP,-0.0446
11,RRIRPRPPRLPRPRPRPLRVPRP,0.615
12,RRIRSRPPRLPRPRPRPLDYPRP,-0.194
13,RRIRRRPPRLPRPRPRPVLLPRP,0.103
14,RRIRIRPPRLPRPRPRPNVQPRP,-0.284
15,RRIRARPPRLPRPRPRPRLSPRP,0.358
16,RRIRFRPPRLPRPRPRPYVFPRP,-0.408
17,RRIRTRPPRLPRPRPRPESVPRP,-0.0229
18,RRIRSRPPRLPRPRPRPQFPPRP,-0.00708
19,RRIRRRPPRLPRPRPRPMTIPRP,0.0416
20,RRIRRRPPRLPRPRPRPDKCPRP,-0.0562
21,RRIRSRPPRLPRPRPRPCQVPRP,-0.0521
22,RRIRVRPPRLPRPRPRPINPPRP,-0.327
23,RRIRARPPRLPRPRPRPCPIPRP,-0.244
24,RRIRCRPPRLPRPRPRPKSNPRP,-0.274
25,RRIRRRPPRLPRPRPRPFEDPRP,-0.0157

row,Sequence,shrunken log2 fold change
1,RRIRARPPRLPRPRPRPKRNPRP,0.487
2,RRIRYRPPRLPRPRPRPCFYPRP,-0.909
3,RRIRFRPPRLPRPRPRPAFWPRP,0.516
4,RRIRLRPPRLPRPRPRPTSRPRP,0.0104
5,RRIRYRPPRLPRPRPRPGNTPRP,-1.18
6,RRIRERPPRLPRPRPRPFNSPRP,-0.225
7,RRIRTRPPRLPRPRPRPDKAPRP,-0.0271
8,RRIRMRPPRLPRPRPRPCGLPRP,0.533
9,RRIRRRPPRLPRPRPRPPTAPRP,0.569
10,RRIRQRPPRLPRPRPRPFKMPRP,-0.217
11,RRIRHRPPRLPRPRPRPAILPRP,-0.171
12,RRIRVRPPRLPRPRPRPSQMPRP,-0.0502
13,RRIRKRPPRLPRPRPRPLRGPRP,0.873
14,RRIRPRPPRLPRPRPRPVVFPRP,0.0396
15,RRIRARPPRLPRPRPRPSRWPRP,0.388
16,RRIRHRPPRLPRPRPRPSCQPRP,-0.31
17,RRIRRRPPRLPRPRPRPGCVPRP,0.329
18,RRIRCRPPRLPRPRPRPTKCPRP,-0.0551
19,RRIRFRPPRLPRPRPRPTEDPRP,0.0193
20,RRIRIRPPRLPRPRPRPKMIPRP,-0.379
21,RRIRTRPPRLPRPRPRPKYHPRP,-0.243
22,RRIRHRPPRLPRPRPRPFHHPRP,0.0477
23,RRIRERPPRLPRPRPRPFQHPRP,-0.252
24,RRIRLRPPRLPRPRPRPITSPRP,0.0662
25,RRIRWRPPRLPRPRPRPEPLPRP,0.417

row,Sequence,shrunken log2 fold change
1,RRIRDRPPRLPRPRPRPKFMPRP,-0.191
2,RRIRERPPRLPRPRPRPLQHPRP,0.159
3,RRIRRRPPRLPRPRPRPWHWPRP,0.183
4,RRIRLRPPRLPRPRPRPTIQPRP,-0.0934
5,RRIRPRPPRLPRPRPRPSIIPRP,-0.634
6,RRIRRRPPRLPRPRPRPYNAPRP,-0.964
7,RRIRRRPPRLPRPRPRPYNFPRP,-0.642
8,RRIRKRPPRLPRPRPRPIDIPRP,0.00848
9,RRIRARPPRLPRPRPRPTEVPRP,0.173
10,RRIRSRPPRLPRPRPRPHLHPRP,-0.177
11,RRIRARPPRLPRPRPRPCRFPRP,0.0212
12,RRIRRRPPRLPRPRPRPFEIPRP,-0.00184
13,RRIRCRPPRLPRPRPRPAWMPRP,-0.0623
14,RRIRWRPPRLPRPRPRPARRPRP,0.495
15,RRIRWRPPRLPRPRPRPGKHPRP,0.0375
16,RRIRMRPPRLPRPRPRPFTLPRP,-0.0107
17,RRIRGRPPRLPRPRPRPEVCPRP,0.955
18,RRIRWRPPRLPRPRPRPALLPRP,0.584
19,RRIRHRPPRLPRPRPRPHTWPRP,-0.301
20,RRIRERPPRLPRPRPRPPIEPRP,-0.227
21,RRIRWRPPRLPRPRPRPRCDPRP,0.429
22,RRIRLRPPRLPRPRPRPDHCPRP,-0.0562
23,RRIRMRPPRLPRPRPRPPAAPRP,2.78
24,RRIRTRPPRLPRPRPRPSYSPRP,-0.316
25,RRIRQRPPRLPRPRPRPLKSPRP,0.138

row,Sequence,shrunken log2 fold change
1,RRIRYRPPRLPRPRPRPFIIPRP,-1.23
2,RRIRMRPPRLPRPRPRPGNEPRP,1.05
3,RRIRLRPPRLPRPRPRPLTNPRP,-0.325
4,RRIRIRPPRLPRPRPRPASKPRP,-0.116
5,RRIRSRPPRLPRPRPRPVWIPRP,0.0104
6,RRIRARPPRLPRPRPRPKCVPRP,0.463
7,RRIRPRPPRLPRPRPRPFSVPRP,-0.0603
8,RRIRMRPPRLPRPRPRPHLEPRP,0.0983
9,RRIRNRPPRLPRPRPRPPWDPRP,0.144
10,RRIRMRPPRLPRPRPRPRMKPRP,0.447
11,RRIRMRPPRLPRPRPRPSHMPRP,-0.146
12,RRIRFRPPRLPRPRPRPVYKPRP,-0.295
13,RRIRIRPPRLPRPRPRPMYFPRP,-0.609
14,RRIRHRPPRLPRPRPRPDNDPRP,0.00849
15,RRIRPRPPRLPRPRPRPIPDPRP,0.0469
16,RRIRPRPPRLPRPRPRPTWDPRP,0.42
17,RRIRFRPPRLPRPRPRPTTNPRP,-0.2
18,RRIRYRPPRLPRPRPRPPDPPRP,0.179
19,RRIRFRPPRLPRPRPRPMFPPRP,-0.368
20,RRIRIRPPRLPRPRPRPALWPRP,0.199
21,RRIRSRPPRLPRPRPRPERMPRP,0.263
22,RRIRLRPPRLPRPRPRPMHRPRP,-0.274
23,RRIRPRPPRLPRPRPRPRTVPRP,0.322
24,RRIRKRPPRLPRPRPRPFKHPRP,-0.0024
25,RRIRCRPPRLPRPRPRPTWHPRP,0.00453

row,Sequence,shrunken log2 fold change
1,RRIRWRPPRLPRPRPRPFRIPRP,-0.5
2,RRIRYRPPRLPRPRPRPIDLPRP,-0.0513
3,RRIRFRPPRLPRPRPRPHCWPRP,-0.0304
4,RRIRYRPPRLPRPRPRPTQSPRP,0.0623
5,RRIRPRPPRLPRPRPRPWSKPRP,0.00178
6,RRIRFRPPRLPRPRPRPAWTPRP,-0.0896
7,RRIRFRPPRLPRPRPRPYQRPRP,-0.238
8,RRIRMRPPRLPRPRPRPDQHPRP,0.237
9,RRIRKRPPRLPRPRPRPSVWPRP,0.645
10,RRIRLRPPRLPRPRPRPDSSPRP,0.00161
11,RRIRGRPPRLPRPRPRPPTSPRP,0.879
12,RRIRYRPPRLPRPRPRPNMNPRP,-0.882
13,RRIRIRPPRLPRPRPRPHAHPRP,-0.554
14,RRIRCRPPRLPRPRPRPLPHPRP,0.102
15,RRIRFRPPRLPRPRPRPERIPRP,-0.352
16,RRIRSRPPRLPRPRPRPFEWPRP,0.0589
17,RRIRLRPPRLPRPRPRPSNGPRP,-0.00256
18,RRIRIRPPRLPRPRPRPLAKPRP,-0.346
19,RRIRERPPRLPRPRPRPIPRPRP,-0.138
20,RRIRERPPRLPRPRPRPMVFPRP,0.0276
21,RRIRMRPPRLPRPRPRPYMMPRP,-0.111
22,RRIRQRPPRLPRPRPRPFPNPRP,-0.0586
23,RRIRDRPPRLPRPRPRPLESPRP,0.258
24,RRIRCRPPRLPRPRPRPPVVPRP,0.0152
25,RRIRPRPPRLPRPRPRPGATPRP,0.54

row,Sequence,shrunken log2 fold change
1,RRIRFRPPRLPRPRPRPGVIPRP,-0.356
2,RRIRYRPPRLPRPRPRPELRPRP,0.363
3,RRIRLRPPRLPRPRPRPQDGPRP,-0.0806
4,RRIRWRPPRLPRPRPRPCKYPRP,-0.509
5,RRIRMRPPRLPRPRPRPGTFPRP,-0.0326
6,RRIRMRPPRLPRPRPRPRHWPRP,0.477
7,RRIRQRPPRLPRPRPRPHWQPRP,-0.147
8,RRIRCRPPRLPRPRPRPWAYPRP,-0.508
9,RRIRNRPPRLPRPRPRPGLGPRP,0.611
10,RRIRTRPPRLPRPRPRPHNIPRP,-0.455
11,RRIRYRPPRLPRPRPRPRYLPRP,-0.176
12,RRIRFRPPRLPRPRPRPPFWPRP,0.538
13,RRIRGRPPRLPRPRPRPHSTPRP,0.517
14,RRIRMRPPRLPRPRPRPTYLPRP,-0.497
15,RRIRMRPPRLPRPRPRPTQNPRP,1.18
16,RRIRCRPPRLPRPRPRPWVGPRP,-0.167
17,RRIRNRPPRLPRPRPRPEGRPRP,0.177
18,RRIRYRPPRLPRPRPRPKTAPRP,-0.0087
19,RRIRCRPPRLPRPRPRPMHWPRP,0.00478
20,RRIRIRPPRLPRPRPRPYTPPRP,-0.825
21,RRIRKRPPRLPRPRPRPRPKPRP,1.03
22,RRIRDRPPRLPRPRPRPWCKPRP,-0.171
23,RRIRSRPPRLPRPRPRPHAVPRP,0.0594
24,RRIRNRPPRLPRPRPRPWPKPRP,0.0323
25,RRIRMRPPRLPRPRPRPPDGPRP,1.41
